These are literature values, as cited in article PMC9395234.

In general, Kd refers to a measure of binding affinity in units of concentration.

In this data set the target is C4BP (Homo sapiens) (UniProt P04003).
UniProt P04003, sequence (P04003 49-597, chain 1 of 2): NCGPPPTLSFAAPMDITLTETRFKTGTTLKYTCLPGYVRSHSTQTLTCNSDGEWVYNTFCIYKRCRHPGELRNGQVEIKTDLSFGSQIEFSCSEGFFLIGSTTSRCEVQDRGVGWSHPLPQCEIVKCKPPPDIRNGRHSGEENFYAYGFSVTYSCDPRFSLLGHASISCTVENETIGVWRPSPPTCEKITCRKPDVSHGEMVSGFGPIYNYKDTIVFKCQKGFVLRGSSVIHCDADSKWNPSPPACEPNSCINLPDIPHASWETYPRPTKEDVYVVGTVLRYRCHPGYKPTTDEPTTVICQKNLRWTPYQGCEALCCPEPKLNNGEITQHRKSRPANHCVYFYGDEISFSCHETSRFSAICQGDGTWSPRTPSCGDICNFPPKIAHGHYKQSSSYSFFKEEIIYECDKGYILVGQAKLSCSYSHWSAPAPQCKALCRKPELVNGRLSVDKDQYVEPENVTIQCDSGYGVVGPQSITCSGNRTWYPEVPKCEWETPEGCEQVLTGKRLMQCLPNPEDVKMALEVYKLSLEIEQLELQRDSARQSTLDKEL
UniProt P04003, sequence (P20851 18-252, chain 2 of 2, further chain): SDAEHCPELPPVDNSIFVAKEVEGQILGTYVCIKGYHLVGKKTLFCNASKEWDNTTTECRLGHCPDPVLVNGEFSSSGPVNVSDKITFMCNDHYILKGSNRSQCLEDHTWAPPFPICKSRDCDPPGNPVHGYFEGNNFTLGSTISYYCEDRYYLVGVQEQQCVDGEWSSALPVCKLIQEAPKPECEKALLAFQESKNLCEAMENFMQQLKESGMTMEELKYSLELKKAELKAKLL

For the substance Protein S (from UniProt P07225), the dissociation constant Kd is 0.1 nM.
